Changes are numbered by the printed parent chain. Where two headings read alike, the source gives them in different places.
Tests used:
Test in all cases: ELISA, OD405
A.9004SS V1V2 Tags [1] = biological target: T1, A.9004SS V1V2 Tags
T1 Env construct: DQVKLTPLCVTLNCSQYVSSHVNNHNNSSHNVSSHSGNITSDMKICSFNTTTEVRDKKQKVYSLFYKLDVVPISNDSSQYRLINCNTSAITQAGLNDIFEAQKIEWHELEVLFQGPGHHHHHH

B.9021 gp140C = B.9021 gp140C (HIV-1)
SIV CPZ US-1 gp140CF [2] = biological target: T2, SIV CPZ US-1 gp140CF (SIVcpz)
T2 construct: also called US-1 SIVCPZ gp140CF
T2 chain: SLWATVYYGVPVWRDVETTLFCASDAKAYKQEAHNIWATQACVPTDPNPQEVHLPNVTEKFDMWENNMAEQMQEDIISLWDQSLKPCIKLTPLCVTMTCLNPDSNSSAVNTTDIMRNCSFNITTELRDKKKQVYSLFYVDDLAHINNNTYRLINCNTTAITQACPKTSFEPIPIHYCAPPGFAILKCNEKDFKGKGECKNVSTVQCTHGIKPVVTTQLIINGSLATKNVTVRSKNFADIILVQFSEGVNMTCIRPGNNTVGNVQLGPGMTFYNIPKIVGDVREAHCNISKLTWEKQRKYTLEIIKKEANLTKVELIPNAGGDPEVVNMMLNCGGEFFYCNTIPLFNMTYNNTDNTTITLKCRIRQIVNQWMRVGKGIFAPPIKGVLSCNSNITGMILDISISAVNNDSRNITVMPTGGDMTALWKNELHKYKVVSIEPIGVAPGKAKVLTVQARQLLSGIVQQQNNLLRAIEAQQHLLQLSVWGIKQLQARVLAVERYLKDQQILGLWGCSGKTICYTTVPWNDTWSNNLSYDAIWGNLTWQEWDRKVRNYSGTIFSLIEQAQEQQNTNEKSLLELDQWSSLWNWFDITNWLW

Con 6 gp120 [3] = biological target: Con 6 gp120
AE.97CNG2XF gp140CF [4] = biological target: T3, AE.97CNG2XF gp140CF (HIV-1)
T3 construct: also called E.97CNGX2F gp140CF

AE.con gp140CF [5] = biological target: T4, AE.con gp140CF
T4 construct: also called AE.con.env03 gp140CF

B. 681-7 gp140C [6] = biological target: B. 681-7 gp140C
B. 684-6 gp140C [7] = biological target: B. 684-6 gp140C
C.CAP206 gp140CF.12 [8] = biological target: C.CAP206 gp140CF.12 (HIV-1)
B.HXB/BAL gp140CFI [9] = biological target: T5, B.HXB/BAL gp140CFI (HIV-1, UniProt P04578 33-680)
T5 construct: also called B.HxB/Ba gp140 CFI

B.63521 gp140C [10] = biological target: B.63521 gp140C
D.9009SA V1V2 Tags [11] = biological target: T6, D.9009SA V1V2 Tags
T6 Env construct: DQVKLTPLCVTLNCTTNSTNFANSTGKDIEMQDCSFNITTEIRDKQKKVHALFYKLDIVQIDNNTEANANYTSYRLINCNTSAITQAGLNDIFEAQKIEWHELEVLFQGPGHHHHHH

B.040 gp140C [12] = biological target: B.040 gp140C
G.con gp140CF [13] = biological target: T7, G.con gp140CF
T7 construct: also called G.con.env03 gp140CF

B.Case A2 V1/V2 Tags [14] = biological target: T8, B.Case A2 V1/V2 Tags
T8 Env construct: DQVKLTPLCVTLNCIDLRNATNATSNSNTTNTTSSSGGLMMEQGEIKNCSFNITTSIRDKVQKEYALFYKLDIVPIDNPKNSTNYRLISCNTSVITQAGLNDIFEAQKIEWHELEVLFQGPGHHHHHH

B.con gp140CF [15] = biological target: T9, B.con gp140CF
T9 construct: also called B.con.env03 gp140CF

C.1086 gp140 [16] = biological target: T10, C.1086 gp140
T10 construct: also called C.1086gp140C

B.62357 140C [17] = biological target: T11, B.62357 140C
T11 construct: also called B.62357 gp140C

B.63521_V1V2 Tags [18] = biological target: T12, B.63521_V1V2 Tags
T12 Env construct: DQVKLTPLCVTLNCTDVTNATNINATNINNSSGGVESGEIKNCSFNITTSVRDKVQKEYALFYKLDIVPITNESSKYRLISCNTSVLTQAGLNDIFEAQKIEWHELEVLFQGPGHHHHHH

gp70 C.1086 V1/V2 [19] = biological target: T13, gp70 C.1086 V1/V2 (HIV-1 V1V2 on murine leukemia virus gp70)
T13 construct: also called C.gp70 1086C V1V2; C.1086gp70V1V2
T13 chain: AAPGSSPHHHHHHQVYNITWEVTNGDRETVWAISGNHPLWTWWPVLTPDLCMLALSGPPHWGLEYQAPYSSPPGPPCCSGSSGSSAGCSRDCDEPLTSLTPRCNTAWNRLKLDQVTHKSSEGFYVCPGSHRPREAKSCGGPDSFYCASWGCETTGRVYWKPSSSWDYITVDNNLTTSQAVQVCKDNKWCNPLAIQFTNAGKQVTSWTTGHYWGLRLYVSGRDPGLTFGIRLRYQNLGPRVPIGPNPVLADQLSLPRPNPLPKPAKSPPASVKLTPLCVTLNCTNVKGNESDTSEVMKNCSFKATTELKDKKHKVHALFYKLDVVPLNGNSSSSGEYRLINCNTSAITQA

A.9004SS V1V2 Tags [20] = biological target: T1, A.9004SS V1V2 Tags
SIV CPZ US-1 gp140CF [21] = biological target: T2, SIV CPZ US-1 gp140CF
Con 6 gp120 [22] = biological target: Con 6 gp120; remark: listed apart in the source
AE.97CNG2XF gp140CF [23] = biological target: T3, AE.97CNG2XF gp140CF; remark: listed apart in the source
AE.con gp140CF [24] = biological target: T4, AE.con gp140CF; remark: listed apart in the source
B. 681-7 gp140C [25] = biological target: B. 681-7 gp140C; remark: listed apart in the source
B. 684-6 gp140C [26] = biological target: B. 684-6 gp140C; remark: listed apart in the source
C.CAP206 gp140CF.12 [27] = biological target: C.CAP206 gp140CF.12 (HIV-1); remark: listed apart in the source
B.HXB/BAL gp140CFI [28] = biological target: T5, B.HXB/BAL gp140CFI; remark: listed apart in the source
B.63521 gp140C [29] = biological target: B.63521 gp140C; remark: listed apart in the source
D.9009SA V1V2 Tags [30] = biological target: T6, D.9009SA V1V2 Tags
B.040 gp140C [31] = biological target: B.040 gp140C; remark: listed apart in the source
G.con gp140CF [32] = biological target: T7, G.con gp140CF; remark: listed apart in the source
B.Case A2 V1/V2 Tags [33] = biological target: T8, B.Case A2 V1/V2 Tags
B.con gp140CF [34] = biological target: T9, B.con gp140CF; remark: listed apart in the source
C.1086 gp140 [35] = biological target: T10, C.1086 gp140; remark: listed apart in the source
B.62357 140C [36] = biological target: T11, B.62357 140C; remark: listed apart in the source
B.63521_V1V2 Tags [37] = biological target: T12, B.63521_V1V2 Tags
gp70 C.1086 V1/V2 [38] = biological target: T13, gp70 C.1086 V1/V2

Measured: binding result

B1: CH01_RUA1 (antibody, V domains shown)
VH: EVQLVESGGGVVRPGGSLRLSCAASGFTFDDYGMSWVRQAPGKGLEWVSGINWNGGSTGYADSVKGRFTISRDNAKNSLYLQMNSLRAEDTALYYCARGTDYTIDDQGIRYQGSGTFWYFDLWGRGTLVTVSS
VL: not shown
notes: also called CH01 UA 1; CH01_UA 1
no binding (tested: 10 ug/ml): A.9004SS V1V2 Tags [1] | B.9021 gp140C | SIV CPZ US-1 gp140CF [2] | Con 6 gp120 [3] | AE.97CNG2XF gp140CF [4] | AE.con gp140CF [5] | B. 681-7 gp140C [6] | B. 684-6 gp140C [7] | C.CAP206 gp140CF.12 [8] | B.HXB/BAL gp140CFI [9] | B.63521 gp140C [10] | D.9009SA V1V2 Tags [11] | B.040 gp140C [12] | G.con gp140CF [13] | B.Case A2 V1/V2 Tags [14] | B.con gp140CF [15] | C.1086 gp140 [16] | B.62357 140C [17] | B.63521_V1V2 Tags [18] | gp70 C.1086 V1/V2 [19]

B2: CH01_RUA2 (antibody, V domains shown)
VH: B1 VH with R110L
VL: not shown
notes: also called CH01 UA 2; CH01_UA 2
no binding (tested: 10 ug/ml): A.9004SS V1V2 Tags [20] | SIV CPZ US-1 gp140CF [21] | Con 6 gp120 [22] | AE.97CNG2XF gp140CF [23] | AE.con gp140CF [24] | B. 681-7 gp140C [25] | B. 684-6 gp140C [26] | C.CAP206 gp140CF.12 [27] | B.HXB/BAL gp140CFI [28] | B.63521 gp140C [29] | D.9009SA V1V2 Tags [30] | B.040 gp140C [31] | G.con gp140CF [32] | B.Case A2 V1/V2 Tags [33] | B.con gp140CF [34] | C.1086 gp140 [35] | B.62357 140C [36] | B.63521_V1V2 Tags [37] | gp70 C.1086 V1/V2 [38]
